Results reported in US10464978B2, “Peptides and combination of peptides for use in immunotherapy against ovarian cancer and other cancers” (immatics biotechnologies GmbH, priority 2015, dated 2019).

Biological target: HLA-A*02:01 (Homo sapiens, UniProt P04439, D140Y/D185E/D98H/E176V/E277Q/G131W/G231S/I119V/I121R/I166T/I218V/L300P/L318F/N151K/N90K/P208A/P217A/Q86G/Q94H/R138H/R169H/T345S)
Assay: MHC binding assay: UV-ligand exchange with beta2m ELISA (peptide exchange yield)
Settings: binding to HLA-A*02:01
Procedure, shortened: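 Peptide-MHC complexes formed by UV-ligand exchange, a UV-cleavable peptide being replaced by the candidate peptide. Exchange products diluted 100-fold, captured on streptavidin-coated plates for 1h at 37° C, then detected with 2 ug/ml HRP anti-β2m (1h, 37° C) and TMB, absorbance 450 nm; value is exchange yield.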

| Substance | Peptide exchange (MHC class I binding score, peptide exchange yield) |
| --- | --- |
| 169 (NLPEYLPFV; listed as Homo sapiens) [compound 169] | “+++” (≥50 = +++) |
| 170 (RLQETLSAA; listed as Homo sapiens) [compound 170] | “+++” (≥50 = +++) |
| 171 (LLLPLQILL; listed as Homo sapiens) [compound 171] | “+++” (≥50 = +++) |
| 172 (VLYSYTIITV; listed as Homo sapiens) [compound 172] | “++” (≥20% = ++) |
| 173 (LLDSASAGLYL; listed as Homo sapiens) [compound 173] | “+++” (≥50 = +++) |
| 174 (ALAQYLITA; listed as Homo sapiens) [compound 174] | “+++” (≥50 = +++) |
| 175 (YLFENISQL; listed as Homo sapiens) [compound 175] | “+++” (≥50 = +++) |
| 176 (YLMEGSYNKVFL; listed as Homo sapiens) [compound 176] | “++” (≥20% = ++) |
| 177 (YLLPEEYTSTL; listed as Homo sapiens) [compound 177] | “++++” (≥75% = ++++) |
| 178 (ALTEIAFVV; listed as Homo sapiens) [compound 178] | “++++” (≥75% = ++++) |
| 179 (KVLNELYTV; listed as Homo sapiens) [compound 179] | “+++” (≥50 = +++) |
| 180 (FQIDPHSGLVTV; listed as Homo sapiens) [compound 180] | “++” (≥20% = ++) |
| 181 (LLWAGTAFQV; listed as Homo sapiens) [compound 181] | “+++” (≥50 = +++) |
| 182 (MLLEAPGIFL; listed as Homo sapiens) [compound 182] | “+++” (≥50 = +++) |
| 183 (FGLDLVTEL; listed as Homo sapiens) [compound 183] | “+++” (≥50 = +++) |
| 184 (YLMDINGKMWL; listed as Homo sapiens) [compound 184] | “+++” (≥50 = +++) |

| Substance | Peptide exchange (MHC class I binding score, peptide exchange yield) |
| --- | --- |
| 185 (FLIDDKGYTL; listed as Homo sapiens) [compound 185] | “++” (≥20% = ++) |
| 186 (TLFFQQNAL; listed as Homo sapiens) [compound 186] | “++” (≥20% = ++) |
| 187 (RQISIRGIVGV; listed as Homo sapiens) [compound 187] | “+++” (≥50 = +++) |
| 188 (GLFPVTPEAV; listed as Homo sapiens) [compound 188] | “+++” (≥50 = +++) |
| 189 (ALQRKLPYV; listed as Homo sapiens) [compound 189] | “+++” (≥50 = +++) |
| 190 (FLSSLTETI; listed as Homo sapiens) [compound 190] | “+++” (≥50 = +++) |
| 191 (LLQEGQALEYV; listed as Homo sapiens) [compound 191] | “++” (≥20% = ++) |
| 192 (KMLDGASFTL; listed as Homo sapiens) [compound 192] | “+++” (≥50 = +++) |
| 193 (QLLDADGFLNV; listed as Homo sapiens) [compound 193] | “+++” (≥50 = +++) |
| 194 (ALPLFVITV; listed as Homo sapiens) [compound 194] | “+++” (≥50 = +++) |
| 195 (GLFADLLPRL; listed as Homo sapiens) [compound 195] | “+++” (≥50 = +++) |
| 196 (YLYSVEIKL; listed as Homo sapiens) [compound 196] | “++++” (≥75% = ++++) |
| 197 (ALGPEGGRV; listed as Homo sapiens) [compound 197] | “++” (≥20% = ++) |
| 198 (KTINKVPTV; listed as Homo sapiens) [compound 198] | “+++” (≥50 = +++) |
| 199 (ALQDVPLSSV; listed as Homo sapiens) [compound 199] | “+++” (≥50 = +++) |
| 200 (LLFGSVQEV; listed as Homo sapiens) [compound 200] | “+++” (≥50 = +++) |

Next, values leading:

| Peptide exchange (MHC class I binding score, peptide exchange yield) | Substance |
| --- | --- |
| “+++” (≥50 = +++) | 201 (RLVDYLEGI; listed as Homo sapiens) [compound 201] |
| “+++” (≥50 = +++) | 202 (ALLDQQGSRWTL; listed as Homo sapiens) [compound 202] |
| “++” (≥20% = ++) | 204 (KIAENVEEV; listed as Homo sapiens) [compound 204] |
| “+++” (≥50 = +++) | 205 (SLYPGTETMGL; listed as Homo sapiens) [compound 205] |
| “+++” (≥50 = +++) | 206 (VLQEGKLQKLAQL; listed as Homo sapiens) [compound 206] |
| “++” (≥20% = ++) | 207 (GLTSTNAEV; listed as Homo sapiens) [compound 207] |
| “+++” (≥50 = +++) | 208 (KISPVTFSV; listed as Homo sapiens) [compound 208] |
| “++” (≥20% = ++) | 209 (KLIESKHEV; listed as Homo sapiens) [compound 209] |
| “++” (≥20% = ++) | 210 (LLLNAVLTV; listed as Homo sapiens) [compound 210] |
| “++” (≥20% = ++) | 211 (LLWPGAALL; listed as Homo sapiens) [compound 211] |
| “++” (≥20% = ++) | 212 (ALWDQDNLSV; listed as Homo sapiens) [compound 212] |
| “+++” (≥50 = +++) | 214 (FLLDLDPLLL; listed as Homo sapiens) [compound 214] |
| “+++” (≥50 = +++) | 215 (QLINHLHAV; listed as Homo sapiens) [compound 215] |
| “+++” (≥50 = +++) | 216 (NLWEDPYYL; listed as Homo sapiens) [compound 216] |
| “++” (≥20% = ++) | 217 (ALIHPVSTV; listed as Homo sapiens) [compound 217] |
| “++” (≥20% = ++) | 218 (SALEELVNV; listed as Homo sapiens) [compound 218] |
| “+++” (≥50 = +++) | 219 (KLSDIGITV; listed as Homo sapiens) [compound 219] |
| “++” (≥20% = ++) | 220 (LLQKFVPEI; listed as Homo sapiens) [compound 220] |

| Peptide exchange (MHC class I binding score, peptide exchange yield) | Substance |
| --- | --- |
| “++” (≥20% = ++) | 221 (ALYEEGLLL; listed as Homo sapiens) [compound 221] |
| “++” (≥20% = ++) | 222 (NLIENVQRL; listed as Homo sapiens) [compound 222] |
| “+++” (≥50 = +++) | 223 (ALLENIALYL; listed as Homo sapiens) [compound 223] |
| “+++” (≥50 = +++) | 224 (TLIDAQWVL; listed as Homo sapiens) [compound 224] |
| “+++” (≥50 = +++) | 225 (SLLKVLPAL; listed as Homo sapiens) [compound 225] |
| “++” (≥20% = ++) | 226 (MLYVVPIYL; listed as Homo sapiens) [compound 226] |
| “++” (≥20% = ++) | 227 (ALMNTLLYL; listed as Homo sapiens) [compound 227] |
| “++” (≥20% = ++) | 228 (AMQEYIAVV; listed as Homo sapiens) [compound 228] |
| “++” (≥20% = ++) | 229 (RLPGPLGTV; listed as Homo sapiens) [compound 229] |
| “+” (≥10% = +) | 230 (ILVDWLVEV; listed as Homo sapiens) [compound 230] |
| “++” (≥20% = ++) | 231 (FLSPQQPPLLL; listed as Homo sapiens) [compound 231] |
| “++” (≥20% = ++) | 232 (ALLEAQDVELYL; listed as Homo sapiens) [compound 232] |
| “++” (≥20% = ++) | 233 (VLSETLYEL; listed as Homo sapiens) [compound 233] |
| “++” (≥20% = ++) | 234 (ALMEDTGRQML; listed as Homo sapiens) [compound 234] |
| “++++” (≥75% = ++++) | 235 (YLNDLHEVLL; listed as Homo sapiens) [compound 235] |
| “+++” (≥50 = +++) | 236 (GLLEAKVSL; listed as Homo sapiens) [compound 236] |
| “++++” (≥75% = ++++) | 237 (ALLEASGTLLL; listed as Homo sapiens) [compound 237] |
